biological target: 10 amino acid biotinylated and ADP-ribosylated peptide [ARTK(Bio)QTARK (Aoa-RADP)S]; test: AlphaScreen or HTRF

MERS-CoV Mac1, His-tagged (domain or fragment), sequence (K9N638 1110-1276 limits assumed): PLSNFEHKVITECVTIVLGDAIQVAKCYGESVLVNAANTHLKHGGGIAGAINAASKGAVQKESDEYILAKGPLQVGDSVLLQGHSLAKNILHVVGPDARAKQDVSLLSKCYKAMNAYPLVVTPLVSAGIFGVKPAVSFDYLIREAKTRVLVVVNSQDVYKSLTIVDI

| Substance | macrodomain concentration at the maximum AS signal [µM] |
| --- | --- |
| MERS-CoV Mac1, His-tagged (domain or fragment) | 1.25 to 2.5 |
| SARS-CoV Mac1, His-tagged (domain or fragment) | 1.25 to 2.5 |
| SARS-CoV-2 Mac1 (conserved macrodomain of non-structural protein 3), His-tagged (from UniProt P0DTD1) (domain or fragment) | 0.625 |
| human macrodomain Mdo2, His-tagged (domain or fragment) | 0.04 |
